Data on two molecules can be found in patent US20040224408A1, “THAP proteins as nuclear receptors for chemokines and roles in transcriptional regulation, cell proliferation and cell differentiation” (published 2004).

The target in assay [1] is T1, THAP1-C1 deletion mutant (amino acids 90-213) (human, UniProt Q9NVV9 90-213).
T1 construct: Tested as a Gal4-BD or Gal4-AD fusion, as in vitro translated 35S-labelled protein and as an EGFP fusion; also called THAP1ΔTHAP; THAP1?THAP
T1 sequence: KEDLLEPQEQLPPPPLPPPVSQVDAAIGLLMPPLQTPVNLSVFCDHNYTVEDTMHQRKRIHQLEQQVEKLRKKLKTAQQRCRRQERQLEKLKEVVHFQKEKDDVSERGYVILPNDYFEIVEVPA
In words: yeast two-hybrid, pGADT7-THAP1 mutant with pGBKT7-SLC/CCL21. Here is the method:
(§1) Two-hybrid interaction between THAP1 mutants and chemokine SLC/CCL21 was tested by cotransformation of AH109 with pGADT7-THAP1-C1, -C2, -C3, -N1, -N2 or -N3 and pGBKT7-SLC/CCL21 and selection of transformants by His and Ade double auxotrophy according to manufacturer's instructions ([…] two-hybrid system 3, Clontech). pGBKT7-SLC/CCL21 vector was generated by subcloning the BamHI SLC/CCL21 fragment from pGBT9-SLC (see example 1) into the unique BamHI cloning site of vector pGBKT7 (Clontech).

For assay [2], the target named is T2, THAP1-N2 deletion mutant (amino acids 1-166) (human, UniProt Q9NVV9 1-166).
T2 construct: Tested as a Gal4-BD or Gal4-AD fusion, as in vitro translated 35S-labelled protein and as an EGFP fusion
T2 sequence: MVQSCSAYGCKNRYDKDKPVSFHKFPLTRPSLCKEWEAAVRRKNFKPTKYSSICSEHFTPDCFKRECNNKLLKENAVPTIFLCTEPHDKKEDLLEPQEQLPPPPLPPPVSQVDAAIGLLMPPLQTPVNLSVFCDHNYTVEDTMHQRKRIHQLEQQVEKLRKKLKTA
The description is as above. The procedure:
as §1

Assay [3] concerns the target T3, THAP1-N3 deletion mutant (amino acids 1-192) (human, UniProt Q9NVV9 1-192).
T3 construct: Tested as a Gal4-BD or Gal4-AD fusion, as in vitro translated 35S-labelled protein and as an EGFP fusion
T3 sequence: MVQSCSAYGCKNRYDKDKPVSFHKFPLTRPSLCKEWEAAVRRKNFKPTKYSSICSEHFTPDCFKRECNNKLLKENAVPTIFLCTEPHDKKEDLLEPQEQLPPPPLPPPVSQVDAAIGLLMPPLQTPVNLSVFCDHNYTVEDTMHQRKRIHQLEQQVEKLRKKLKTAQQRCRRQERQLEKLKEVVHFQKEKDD
Described as above. Here is the method: as §1

Assay [4] has as its target T4, Glutathione S-transferase (GST) control protein (pGEX-2T) (UniProt P08515 1-218 = GST).
T4 construct: Negative control immobilized on glutathione sepharose; also called GST beads; immobilized GST alone
The assay is described as follows: GST pull-down, immobilized GST control, in vitro translated 35S-labelled SLC/CCL21.

Assay [5] addresses T5, human THAP1 (THanatos (death)-Associated Protein-1), full length (human, UniProt Q9NVV9 1-213).
T5 construct: also called hTHAP1; FLJ10477
T5 sequence: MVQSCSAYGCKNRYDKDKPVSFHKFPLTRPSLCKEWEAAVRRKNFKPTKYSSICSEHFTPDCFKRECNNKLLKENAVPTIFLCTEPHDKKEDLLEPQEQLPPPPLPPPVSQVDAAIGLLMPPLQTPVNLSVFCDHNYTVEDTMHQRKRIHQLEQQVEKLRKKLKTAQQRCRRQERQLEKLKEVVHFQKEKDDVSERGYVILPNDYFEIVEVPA
In words: yeast two-hybrid screen of the pGAD424-HEVEC cDNA library with pGBT9-SLC bait (His selection). From the text:
In an effort to define the function of novel HEVEC proteins and the cellular pathways involved, we used different baits to screen a two-hybrid cDNA library generated from microvascular human HEV endothelial cells (HEVEC). HEVEC were purified from human tonsils by immunomagnetic selection with monoclonal antibody MECA-79 as previously described (Girard and Springer (1995) Immunity 2:113-123). The SMART PCR cDNA library Construction Kit (Clontech, Palo Alto, Calif., USA) was first used to generate full-length cDNAs from 1 μg HEVEC total RNA. Oligo-dT-primed HEVEC cDNA were then digested with SfiI and directionally cloned into pGAD424-Sfi, a two-hybrid vector generated by inserting a SfiI linker (5′-[…]-3′) (SEQ ID NO: 181) between EcoRI and BamHI cloning sites of pGAD424 (Clontech). The resulting pGAD424-HEVEC cDNA two-hybrid library (mean insert size>1 kb, ˜3×10⁶ independant clones) was amplified in E. coli. […]

Assay [6] concerns the target T6, Par4 leucine zipper/death domain (Par4DD, amino acids 250-342) (human, UniProt Q96IZ0 248-340).
T6 construct: also called myc-Par4DD; mycPar4DD
T6 chain: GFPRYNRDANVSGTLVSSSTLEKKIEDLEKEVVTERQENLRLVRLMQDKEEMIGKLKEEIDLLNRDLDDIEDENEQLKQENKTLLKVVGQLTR
In words: yeast two-hybrid. The procedure:
Two-hybrid interaction between THAP1 mutants and Par4DD was tested by cotransformation of AH109 with pGBKT7-THAP1-C1, -C2, -C3, -N1, -N2 or -N3 and pGADT7-Par4DD and selection of transformants by His and Ade double auxotrophy according to manufacturer's instructions ([…] two-hybrid system 3, Clontech).
for mutant THAP1ΔQRCRR. The resulting PCR fragments were digested with EcoRI and BamHI, and cloned in frame downstream of the Gal4 Binding Domain (Gal4-BD) in pGBKT7 two-hybrid vector (Clontech) to generate pGBKT7-THAP1-RR/AA and −Δ(QRCRR), or downstream of the Enhanced Green Fluorescent Protein (EGFP) ORF in pEGFP.C2 vector (Clontech) to generate pEGFP.C2-THAP1-RR/AA and −Δ(QRCRR). THAP1 RR/AA and THAP1ΔQRCRR THAP1 mutants were then tested in the three THAP1/Par4 interaction assays (two-hybrid assay, in vitro THAP1/Par4 interaction assay, in vivo THAP1/Par4 interaction assay) as described above for the THAP1-C1, -C2, -C3, -N1, -N2 or -N3 mutants.

For assay [7], the target named is T7, GST-Par4DD fusion protein (pGEX-2T-Par4DD, Par4 amino acids 250-342) (human, UniProt Q96IZ0 248-340).
T7 construct: Expressed in E. coli DH5alpha and immobilized on glutathione sepharose; not shown: Glutathione S-transferase (GST) encoded by the pGEX-2T prokaryotic expression vector (Amersham Pharmacia Biotech); N-ter
T7 chain: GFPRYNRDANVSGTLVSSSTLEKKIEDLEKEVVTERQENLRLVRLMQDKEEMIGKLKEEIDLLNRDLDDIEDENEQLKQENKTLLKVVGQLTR
The assay is described as follows: in vitro THAP1/Par4 interaction assay (GST pull-down with GST-Par4DD). The procedure: THAP1 mutants were also tested in the in vitro THAP1/Par4 interaction assay. In vitro-translated THAP1 mutants were generated with the TNT-coupled reticulocyte lysate system (Promega, Madison, Wis., USA) using pGBKT7-THAP1-C1, -C2, -C3, -N1, -N2 or -N3 vector as template. 25 μl of each ³⁵S-labelled THAP1 mutant was incubated with immobilized GST or GST-Par4 protein overnight at 4° C., in the following binding buffer: 10 mM NaPO4 pH 8.0, 140 mM NaCl, 3 mM MgCl2, 1 mM dithiothreitol (DTT), 0.05% NP40, and 0.2 mM phenylmethyl sulphonyl fluoride (PMSF), 1 mM Na Vanadate, 50 mM β Glycerophosphate, 25 μg/ml chimotrypsine, 5 μg/ml aprotinin, 10 μg/ml Leupeptin. Beads were then washed 5 times in 1 ml binding buffer. Bound proteins were eluted with 2×Laemmli SDS-PAGE sample buffer, fractionated by 10% SDS-PAGE and visualized by fluorography using Amplify (Amersham Pharmacia Biotech). As expected, THAP1-C1, -C2, -C3, -and -N3 interacted with GST/Par4DD (FIG. 4B).
for mutant THAP1ΔQRCRR. The resulting PCR fragments were digested with EcoRI and BamHI, and cloned in frame downstream of the Gal4 Binding Domain (Gal4-BD) in pGBKT7 two-hybrid vector (Clontech) to generate pGBKT7-THAP1-RR/AA and −Δ(QRCRR), or downstream of the Enhanced Green Fluorescent Protein (EGFP) ORF in pEGFP.C2 vector (Clontech) to generate pEGFP.C2-THAP1-RR/AA and −Δ(QRCRR). […]

T4 sequence (P08515 whole entry): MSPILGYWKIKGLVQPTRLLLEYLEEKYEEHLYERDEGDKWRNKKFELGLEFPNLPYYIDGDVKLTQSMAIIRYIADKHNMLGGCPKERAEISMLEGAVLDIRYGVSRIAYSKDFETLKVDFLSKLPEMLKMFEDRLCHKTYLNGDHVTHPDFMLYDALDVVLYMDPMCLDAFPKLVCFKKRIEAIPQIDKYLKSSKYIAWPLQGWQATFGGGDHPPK

B1: human chemokine SLC/CCL21, mature form (amino acids 24-134) (ligand)
chain: SDGGAQDCCLKYSQRKIPAKVVRSYRKQEPSLGCSIPAILFLPRKRSQAELCADPKELWVQQLMQHLDKTPSPQKPAQGCRKDRGASKTGKKGKGSKGCKRTERSQTPKGP
notes: also called SLC/6Ckine; SLC/CCL21 wild type
Consider B1, for which the binding result was “binds” in assay [1]; “no binding” in assay [2]; “no binding” in assay [3]; “no binding” in assay [4]; “binds” in assay [5].

B2: THAP1 RR/AA mutant (R171A, R172A) (other)
chain: MVQSCSAYGCKNRYDKDKPVSFHKFPLTRPSLCKEWEAAVRRKNFKPTKYSSICSEHFTPDCFKRECNNKLLKENAVPTIFLCTEPHDKKEDLLEPQEQLPPPPLPPPVSQVDAAIGLLMPPLQTPVNLSVFCDHNYTVEDTMHQRKRIHQLEQQVEKLRKKLKTAQQRCAAQERQLEKLKEVVHFQKEKDDVSERGYVILPNDYFEIVEVPA
notes: Tested as a Gal4-BD fusion (pGBKT7), as in vitro translated protein and as an EGFP fusion; also called THAP RR/AA
In the case of B2, the binding result in assay [6] and in assay [7] was “no binding” in each case.
